Measurements from US20230235058A1 (OXFORD UNIVERSITY INNOVATION, published 2023).

T1: full length cynomolgus BTLA expressed on Jurkat cells (cynomolgus monkey, UniProt Q7Z6A9 31-289 (human entry))
T1 chain: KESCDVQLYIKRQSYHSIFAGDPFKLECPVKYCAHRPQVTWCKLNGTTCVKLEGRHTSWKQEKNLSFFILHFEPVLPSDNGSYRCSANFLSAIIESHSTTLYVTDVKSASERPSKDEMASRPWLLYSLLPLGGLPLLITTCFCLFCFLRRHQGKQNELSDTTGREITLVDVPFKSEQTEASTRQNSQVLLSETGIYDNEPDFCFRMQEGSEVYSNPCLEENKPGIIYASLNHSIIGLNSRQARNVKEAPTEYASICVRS

T2: soluble cynomolgus macaque BTLA extracellular domain (BTLA K31-R151) (cynomolgus macaque)
T2 construct: also called cynomolgus BTLA; cyno BTLA
T2 chain: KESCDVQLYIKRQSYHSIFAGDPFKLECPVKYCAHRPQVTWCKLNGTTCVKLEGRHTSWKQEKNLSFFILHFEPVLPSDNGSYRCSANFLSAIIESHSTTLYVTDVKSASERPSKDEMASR


How the values were obtained:
[1] = target: T3, chimeric BTLA of humanised-BTLA mice (human extracellular region, murine transmembrane and signaling … (human; mouse, UniProt Q7TSA3 184-306, limits assumed); experiment: cell-based or functional assay
[2] = target: T1, full length cynomolgus BTLA expressed …; experiment: cell-based or functional assay
[3] = target: T1, full length cynomolgus BTLA expressed …; experiment: flow cytometry, BTLA Jurkat cells
Experimental: A lentiviral transfection system was used to express full length human or cynomolgus BTLA in a Jurkat T cell line. 1×10⁵ cells per well were plated in 96 well U-bottom plates. […] Secondary antibody was incubated for 30 minutes on ice, then cells were washed and resuspended in FACS buffer for analysis on a flow cytometer. The geometric mean fluorescent intensity of secondary antibody was plotted for each concentration and the EC50 for receptor binding calculated by non-linear curve fitting using GraphPad Prism software.
The ability of the BTLA agonist antibodies of the present invention to bind to human or cynomolgus BTLA expressed on the cell surface was assessed by flow cytometry. A lentiviral transfection system was used to express full length human or cynomolgus BTLA in a Jurkat T cell line. 1×10⁵ cells per well were plated in 96 well U-bottom plates.

[4] = target: T2, soluble cynomolgus macaque BTLA …; experiment: SPR (Biacore T200), single cycle kinetics at 37 C, antibody captured on anti-mouse IgG, soluble BTLA extracellular domain as analyte
Experimental: Mouse antibody capture kit (GE Healthcare) was used to coat a Series S CMS Sensor Chip (GE Healthcare) with polyclonal anti-mouse IgG. Anti-BTLA antibody was then captured onto the biosensor surface and a negative control antibody (clone Mopc21; Biolegend) captured in the reference channel. […] Association and dissociation rates were fitted using BiaEvaluation Software (GE Healthcare) after reference and blank subtractions, and dissociation constants were calculated (FIG. 1b).

[5] = target: T3, chimeric BTLA of humanised-BTLA mice …; experiment: cell-based or functional assay; remark: listed apart in the source
[6] = target: T2, soluble cynomolgus macaque BTLA …; experiment: SPR 37C, mAb captured, BTLA ECD analyte;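 also: Anti-BTLA mouse antibodies captured on a sensor chip via polyclonal anti-mouse IgG, isotype control antibody in reference channel, rates fitted after reference and blank subtraction to derive Kd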
[7] = target: T4, K81L (Mus musculus); experiment: flow cytometry, GFP-positive transfected HEK-293T cells, fluorochrome-conjugated antibody at 10 ug/ml, Geo-mean relative to wild type;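 also: cells express mutant human BTLA ectodomain fused to murine CD28 transmembrane and cytoplasmic parts, stained 48 h after transfection for 1 h at 4 °C alongside a Live/Dead dye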
T4 construct: transmembrane and intracellular regions; also called BTLA K81L construct
Experimental: (§1) Constructs encoding the human extracellular region of BTLA with the transmembrane and intracellular regions of murine CD28 were cloned into the bi-cistronic mammalian expression vector pGFP2-n2 (BioSignal Packard Ltd), which also encodes GFP. […] Mock and no-transfection controls were included with each experiment. Cells were harvested at 48 hours and stained with fluorochrome-conjugated anti-BTLA antibody at 10 μg/ml, alongside a Live/Dead marker, in PBS, 0.05% azide, 2% FCS (FACS buffer) for 1 h at 4° C. Cells were washed, pelleted and resuspended in 200 μl FACS buffer before being analysed on a BD FACSCanto flow cytometer. […] For each mutant the Geo-mean of anti-BTLA antibody binding to transfected cells was expressed as a percentage of binding to the wild-type receptor (FIG. 3b). A panel of anti-BTLA antibodies was assessed and any mutation that eliminated binding of all antibodies was excluded from the analysis, on the assumption that such mutations lead to drastic changes in protein folding or expression rather than indicating an antibody epitope.

[8] = target: T5, R42E (Mus musculus); experiment: as above
T5 construct: transmembrane and intracellular regions; also called BTLA R42E construct
Experimental: as §1

[9] = target: T6, E92R (Mus musculus); experiment: as above
T6 construct: transmembrane and intracellular regions; also called BTLA E92R construct
Experimental: as §1

[10] = target: T7, N65R (Mus musculus); experiment: as above
T7 construct: transmembrane and intracellular regions; also called BTLA N65R construct
Experimental: as §1

[11] = target: T8, E103R (Mus musculus); experiment: as above
T8 construct: transmembrane and intracellular regions; also called BTLA E103R construct
Experimental: as §1

[12] = target: T9, A64R (Mus musculus); experiment: as above
T9 construct: transmembrane and intracellular regions; also called BTLA A64R construct
Experimental: as §1

[13] = target: T10, S121R (Mus musculus); experiment: as above
T10 construct: transmembrane and intracellular regions; also called BTLA S121R construct
Experimental: as §1

[14] = target: T11, E55R (Mus musculus); experiment: as above
T11 construct: transmembrane and intracellular regions; also called BTLA E55R construct
Experimental: as §1

[15] = target: T12, Q120R (Mus musculus); experiment: as above
T12 construct: transmembrane and intracellular regions; also called BTLA Q120R construct
Experimental: as §1

[16] = target: T13, E83R (Mus musculus); experiment: as above
T13 construct: transmembrane and intracellular regions; also called BTLA E83R construct
Experimental: as §1

[17] = target: T14, D35R (Mus musculus); experiment: as above
T14 construct: transmembrane and intracellular regions; also called BTLA D35R construct
Experimental: as §1

[18] = target: T15, N108R (Mus musculus); experiment: as above
T15 construct: transmembrane and intracellular regions; also called BTLA N108R construct
Experimental: as §1

[19] = target: T16, E57R (Mus musculus); experiment: as above
T16 construct: transmembrane and intracellular regions; also called BTLA E57R construct
Experimental: as §1

[20] = target: T17, S47R (Mus musculus); experiment: as above
T17 construct: transmembrane and intracellular regions; also called BTLA S47R construct
Experimental: as §1

[21] = target: T18, L106R (Mus musculus); experiment: as above
T18 construct: transmembrane and intracellular regions; also called BTLA L106R construct
Experimental: as §1

T3 sequence (Q7TSA3 other isoform, or with tags, fused parts or gaps mutant limits assumed): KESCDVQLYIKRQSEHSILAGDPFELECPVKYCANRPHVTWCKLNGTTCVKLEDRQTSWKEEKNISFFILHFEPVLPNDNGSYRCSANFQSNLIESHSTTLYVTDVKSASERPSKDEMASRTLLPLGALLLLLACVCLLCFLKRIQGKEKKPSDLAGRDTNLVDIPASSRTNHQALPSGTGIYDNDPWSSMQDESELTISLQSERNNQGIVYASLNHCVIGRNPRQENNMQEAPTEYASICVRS
T10 sequence (Q7Z6A9 31-151 S121R): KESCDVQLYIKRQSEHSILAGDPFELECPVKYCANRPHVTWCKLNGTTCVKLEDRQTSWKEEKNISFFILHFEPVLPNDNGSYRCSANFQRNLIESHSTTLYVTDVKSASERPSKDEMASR
T17 sequence (Q7Z6A9 31-151 S47R): as the sequence (Q7Z6A9 31-151 S121R) above, with S17R, R91S counted along it
T14 sequence (Q7Z6A9 31-151 D35R): as the sequence (Q7Z6A9 31-151 S121R) above, with D5R, R91S counted along it
T8 sequence (Q7Z6A9 31-151 E103R): as the sequence (Q7Z6A9 31-151 S121R) above, with E73R, R91S counted along it
T16 sequence (Q7Z6A9 31-151 E57R): as the sequence (Q7Z6A9 31-151 S121R) above, with E27R, R91S counted along it
T15 sequence (Q7Z6A9 31-151 N108R): as the sequence (Q7Z6A9 31-151 S121R) above, with N78R, R91S counted along it

| Binder | inhibition of CD4 T cell proliferation in MLR, IC50 [1] [nM] | inhibition of NFkB-GFP reporter, IC50 [2] [nM] | EC50 [3] [nM] | koff [4] [s⁻¹] | kon [4] [M⁻¹ s⁻¹] | AntiCD3/CD28 (CD4 T cell proliferation) repeat 1 [5] [% inhibition] | AntiCD3/CD28 (CD4 T cell proliferation) repeat 2 [5] [% inhibition] | AntiCD3/CD28 (CD69+ CD4 T cells) repeat 1 [5] [% inhibition] | AntiCD3/CD28 (CD69+ CD4 T cells) repeat 2 [5] [% inhibition] | MLR (CD4 T cell proliferation) repeat 1 [5] [% inhibition] | MLR (CD4 T cell proliferation) repeat 2 [5] [% inhibition] | Kd [6] [nM] | binding as % of binding to wild-type BTLA [7] [%] | binding as % of binding to wild-type BTLA [8] [%] | binding as % of binding to wild-type BTLA [9] [%] | binding as % of binding to wild-type BTLA [10] [%] | binding as % of binding to wild-type BTLA [11] [%] | binding as % of binding to wild-type BTLA [12] [%] | binding as % of binding to wild-type BTLA [13] [%] | binding as % of binding to wild-type BTLA [14] [%] | other results |
| --- | --- | --- | --- | --- | --- | --- | --- | --- | --- | --- | --- | --- | --- | --- | --- | --- | --- | --- | --- | --- | --- |
| 11.5.1 (antibody, V domains shown, mouse IgG1k hybridoma antibody) VH: EVQLQESGPSLVKPSQTLSLTCSVTGDSITSAYWNWIRKFPGNKLEYMGYISYSGSTYFNPSLKSRISITRNTSKNQYYLQLNSVTTEDTATYYCARSHYYGYYFDYWGHGTTLTVSS VL: DIVLTQSPASLAVSLGQRATISCRASETIDSYGDSLMHWYQQKAGQPPKLLIYRASNLESGIPARFSGSGSRTDFTLTINPVEADDVATYYCQQTDEDPYTFGGGTKLEIK | 0.016 | 0.14 | 0.0057 | 0.000952 | 957000 | 21 | 28 | 50 | 47 | 23 | 18 | 0.99 | 116 | 72.3 | 73.3 | 87.9 | 213 | 148 | 42.5 | 60.5 | Kd [4]: 0.995 nM; binding as % of binding to wild-type BTLA [15]: 89.9%; binding as % of binding to wild-type BTLA [16]: 95.5%; binding as % of binding to wild-type BTLA [17]: 71.2%; binding as % of binding to wild-type BTLA [18]: 171%; binding as % of binding to wild-type BTLA [19]: 108%; binding as % of binding to wild-type BTLA [20]: 108%; binding as % of binding to wild-type BTLA [21]: 135% |
| 2.8.6 (antibody, V domains shown, mouse IgG1k hybridoma antibody; also called clone 2.8.6) VH: QVQLKESGPGLVAPSQSLSITCTVSGFSLTTYGVHWVRQSPGKGLEWLGVMWPGGRTSYNPAPMSRLSISKDNSKSQVFLKMNSLQTDDTAMYYCVRGDYEYDYYAMDYWGQGTSVTVSS VL: QIVLSQSPAILSASPGEKVTMTCRASSSVSYMHWYQQKPGSSPKPWIYATSNLASGVPARFSGSGSGTSYSLTISRMEAEDAATYYCHQWSSNPYTFGGGTKLEIK | 0.029 | 0.22 | 0.16 | 0.00627 | 795000 | 23 | 35 | 58 | 67 | 30 | 36 | 7.89 | 90.3 | 111 | 62.2 | 89 | 79 | 93.5 | 67.9 | 52 | binding as % of binding to wild-type BTLA [15]: 76.3%; binding as % of binding to wild-type BTLA [16]: 98.8%; binding as % of binding to wild-type BTLA [17]: 83.7%; binding as % of binding to wild-type BTLA [18]: 107%; binding as % of binding to wild-type BTLA [19]: 76.3%; binding as % of binding to wild-type BTLA [20]: 99.7%; binding as % of binding to wild-type BTLA [21]: 80.4% |
